The nanobody polyreactivity screen of Harvey et al. (2022)

Experiment: yeast display, Sf9 membrane polyspecificity reagent, FACS + sequencing; frameworks hold sequencing errors
Procedure, shortened: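 Sorting gates, low and high (top ~1%), were placed on anti-HA fluorescence to track expression and on streptavidin fluorescence to track reagent binding. A clone's polyreactivity label is taken from the gate it came out of. The reagent was 10% biotinylated, detergent-solubilized Sf9 membrane, applied for 1 hour at 4 °C to galactose-induced yeast display cells.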

Sequence	polyreactivity (PSR sort gate)
QVQLVESGGCLVQAGGSLRLSCAASGYTFVHYDMGWYRQAPGKEREFVAAISGATYYADSVTGRFTISRDNAKNTVYLQMNSLKLEDTAVYYCNAYAYVESPSDMDYWGQGTQVTVSS	low polyreactivity
QVQLVESGGGIVQAGGSLRLSCAASGPNFTDNAMGWYRQAPGKERELVAAITGPGGSTYYAHSVKGRFTISRDNAKTTVYLQMNSLKREDTAVFYCAADYYYPYYWGQGTQVTVSS	low polyreactivity
QVQLVESGGGLVEAGGSLRLSCAASGAIFQYAMGWYRQAPGKERELVAGITYRGSTYYADSVKGRFTISRDNAKNTVYLQMNSMKPEDTAVYDCAALQRGFGYRPRRWSYDYWGQGTQVTVSS	high polyreactivity
QVQLVESGGGLVQAGGSLRLSCAASGFIFVRYAMGWYRQAPGKQRELVASITRSGGSTYYADSVKGRFTISRDNAKNTVYLQMNSLKPEDTAVYYCAASYFRSRGSTYGYWGQGTQVTVSS	high polyreactivity
QVHLVESGGGLVQAGGSLRLTCAASGSIFLWNAMGWYRQAPGTEREVVAAITWRGGSTYYADSVKGRFTISRDNEKYTVYLQMNSLKPEDTAVYYCAADSYDWMDYWGQGTQVTVSS	low polyreactivity
QVQLVESAGGLVQAAASLRLSCADSGITFVVYTMGWYRQAPGKERELVASISISGDSTNYADSVKGRFTISRDNAKNTVYLQMNSLKPEDTAVYYCNAAFYHFQFPWIAYDYWGQGTQVTVSS	low polyreactivity
QVQLVESGGGLVQAGGSLRLSCAASGRIFKYYAMGWYRPAPGNETELVAAIRWSDSTYYADSVKGRFTSSRDNAKNTVYLQMNSLQPEDTAVYYCAALYRHPQEYRVGDYDYWGQGTQVTVSS	low polyreactivity
QVQLVESGGGLVQAGGSLRLSCAASGIIFVSYMGWYRQAPGKERELVAAIRWSGGRTYYADSVKGRFTISRDNAKNTVYLQMNSLKPEDTAVYFCAADALRKPKIALYDYWGQGTQVTVSS	high polyreactivity
QVQLVESGGGLVQAGGSLRLSCAASGITFYRYDMGWYRQAPGKERELVAAISTRGGSTYYADSVKGRFTISRDNAKNTVYLQMNSLKPEDTAVYYCAKERVGTSLPFKDYYWGQGTQVTVSS	low polyreactivity
QVQLVESGGGLVQAGGSLRLSCAATGITFVYNAMGWYRQAPGKERELVAAISWSGTSTYYADSVKGRFTISRDNAKNTVYLQMNSLKPEDTAVYDCSAQSGYPPYGYYYWGQGTQVTVSS	low polyreactivity
QVQLVESGGGLDQAGGSLRLSCAASGIIFAANAMGWSRQAPGKERELVAAISKNGGITYYADSVQGRFTISRDNAKNTVDLQRNSLKPEDTAVYYCAARWRQTRSYYYWGQGTQVNVSS	high polyreactivity
QVQLVESGGGLVQAGGSLRLSCAASGFTFGYYTMGWYRQAPGKERELVASISRTGGRTYADSVKGRFTISRDNAKNTVYLQMNSLKPEDTAVYYCAAYRQGSAYDYWGQGTQVTVSS	high polyreactivity
QDQLVESGGGLVQAGGSLRLSCAASGFIFDTYAMGWYRQAPGKERELVAVISSGGSTYYADSVKGRFTISRDNAKNTVYLQMNSLKPEDTAVYYCAADSGYLGIYGDEYSWGQGTQVTVSS	low polyreactivity
QVQLVESGGGLVQARGSLRLSCAASGIIFGYNAKGWYRQAPGKERELVAVITWNGGSTYYADSVKGCFTISRDNAKNTVYLQMNSLKPEDTAVYYCNAGDDYAYGVELSYDYWGQGTQVTVSS	low polyreactivity
QVQLVESAGGLVQAGGSLRLSCAASGSIFVYNTMGWYRQAPGKERELVASITYSGGSTYYADSVKGRFTISRDNAKNTVYLQMNSLKPEDTAVYYCNTDDVALQWDWYPYPYDYWGQGTQVTVSS	low polyreactivity
QVQLVESGGGLVQAGGSLRLTCAASGSIFRWNAMGWYRQAPGKERELVASITSGGSTYYADSVKGRFTISRDNAKNTVYLQMISLKPEDTAVYYCAAARYPGRKFDYWGQGTQVTVSS	high polyreactivity
QGQLVESGGGLGQAGGSLRLSCAASGSTVVLYAMGWYRQARGKERELVAAISGGATTTYADSVKGRFTISRDNAKNTVYLQMNSLKPEDTAVYYCAADFSTFVLSGAAMDYWGQGTQVTVSS	low polyreactivity
QVQLVESGGGLVQAGGSLRLSCAASGRIFTYNTMGWYRQAPGKERELVAAITSGGRTYYADSVKGRFTISRDNAKNTVYLQMNSLKPEDTAVYYCAAGRSRFVTRYDYWGQGTQVTVSS	high polyreactivity
QVQLVESGGGLVQAGGSLRLSCAASGFTFPTYAMGWYRPAPGKERELVAAITRGGSTYYADSVKGRFTISRDNAKNTVYLQMNSLKPEDTAVYYCAGDDPWYEEDYWGQGTQVTVSS	low polyreactivity
QLQLVESGGGLVQAGGSLRLSCAASGSTFNYNAMGWYRQAPGKEREFVAAISRSGGSTSYADSVKGRFTISRDNAKNTVYLQMNSLKPEDTAVYYCAAYYRKTGYDYWGQGTQVTVSS	high polyreactivity
QVQLVESGRGLVQAGVSLRLSCAASGPTFRGNVMGRYRKAPGKERELVAAINWTGSSTYYADSVKGGFTISRDNAKNTVYLQMNSLKPEDTAVDYCATRIGPHGGGLPRDYWGQGTQVTVSS	low polyreactivity
